Results as given in article PMC9010765.

Key:
[1] = biological target: human myeloperoxidase (human) (UniProt P05164); assay: SPR; BIAcore 3000; MPO immobilised on a CM5 chip through primary amino groups; lipid-poor apoA-I 0.5 nM to 3 uM flowed over at 20 ul/min in 10 mM PBS pH 7.4; 1:1 binding with drifting baseline model; apparent KD
[2] = biological target: human myeloperoxidase (human); assay: SPR; BIAcore 3000; MPO immobilised on a CM5 chip through primary amino groups; apoA-I 0.5 nM to ~3000 nM flowed over at 20 uL/min in 10 mM PBS, pH 7.4; fit to 1:1 binding with a drifting baseline; apparent KD
human myeloperoxidase (human), sequence (P05164 165-745): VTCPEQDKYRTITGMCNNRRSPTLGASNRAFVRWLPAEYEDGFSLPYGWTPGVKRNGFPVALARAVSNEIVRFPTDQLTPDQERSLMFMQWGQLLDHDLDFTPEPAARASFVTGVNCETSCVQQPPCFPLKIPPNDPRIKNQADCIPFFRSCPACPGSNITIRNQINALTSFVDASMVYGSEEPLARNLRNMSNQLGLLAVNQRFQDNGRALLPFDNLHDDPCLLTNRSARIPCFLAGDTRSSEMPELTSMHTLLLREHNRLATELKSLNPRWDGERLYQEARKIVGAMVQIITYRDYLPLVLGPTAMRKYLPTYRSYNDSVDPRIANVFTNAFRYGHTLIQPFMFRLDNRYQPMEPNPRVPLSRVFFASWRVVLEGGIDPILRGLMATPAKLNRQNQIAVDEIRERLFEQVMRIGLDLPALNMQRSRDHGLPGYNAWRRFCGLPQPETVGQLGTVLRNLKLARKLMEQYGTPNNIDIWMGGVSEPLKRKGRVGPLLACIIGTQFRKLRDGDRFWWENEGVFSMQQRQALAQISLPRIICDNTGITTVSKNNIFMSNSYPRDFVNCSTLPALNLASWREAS

recombinant human apolipoprotein A-I, lipid-poor (from UniProt P02647 19-267) (natural protein)
Kd [1]: 75 nM
Kd [2]: 75.1 nM
koff [2]: 0.00377 s⁻¹
kon [2]: 50200 M⁻¹ s⁻¹
